# Laboratory results published in patent US6534640B1, “Methods and compositions to alter the cell surface expression of phosphatidylserine and other clot-promoting plasma membrane phospholipids” (Blood Center Research Foundation, priority 1996, dated 2003).
# Substitutions are numbered along the chain they refer to.
# B1: Asp275: Mutant human PL scramblase with Ala substitution at Asp275 (EF-hand loop position 3) (protein, UniProt O15162 1-318, looked up, variant D275A)
# Phospholipid scramblase 1: MDKQNSQMNASHPETNLPVGYPPQYPPTAFQGPPGYSGYPGPQVSYPPPPAGHSGPGPAGFPVPNQPVYNQPVYNQPVGAAGVPWMPAPQPPLNCPPGLEYLSQIDQILIHQQIELLEVLTGFETNNKYEIKNSFGQRVYFAAEDTDCCTRNCCGPSRPFTLRIIDNMGQEVITLERPLRCSSCCCPCCLQEIEIQAPPGVPIGYVIQTWHPCLPKFTIQNEKREDVLKISGPCVVCSCCGDVDFEIKSLDEQCVVGKISKHWTGILREAFTDAANFGIQFPLDLDVKMKAVMIGACFLIDFMFFESTGSQEQKSGVW
# B2: Asp273: Mutant human PL scramblase with Ala substitution at Asp273 (EF-hand loop position 1) (protein, listed as Homo sapiens)
# chain: B1 Phospholipid scramblase 1 with D273A, A275D
# B3: Asp284: Mutant human PL scramblase with Ala substitution at Asp284 (EF-hand loop position 12) (protein, UniProt O15162 1-318, looked up, variant D284A)
# Phospholipid scramblase 1: B1 Phospholipid scramblase 1 with A275D, D284A
# System: human PL scramblase
# Assay: PL scramblase activity: Ca2+-dependent transbilayer movement of NBD-PC in reconstituted PC/PS proteoliposomes
# Type: biochemical
# Settings: activity as function of external free [Ca2+]
# Procedure: Reconstitution of PL scramblase or scramblase fusion protein into proteoliposomes. Reconstitution and functional activity were performed essentially as previously described (F. Bassé, et al., J. Biol. Chem. 271:17205-17210, 1996; J. G. Stout, et al., J. Clin. Invest. 99:2232-2238, 1997). Briefly, a mixture of PC and PS (9:1 molar ratio) was dried under a stream of nitrogen and resuspended in 100 mM Tris, 100 mM KCl, 0.1 mM EGTA, pH 7.4 (Tris buffer). Protein samples to be reconstituted were added to the liposomes at a final lipid concentration of 4 mg/ml in the presence of 60 mM OG, and dialyzed overnight at 4° C. against 200 vol of Tris buffer containing 1 g/L Bio-Beads SM-2. To liberate PL scramblase from MBP, the proteoliposomes were incubated 3 h at room temperature in the presence of 1/40 (w/w) factor Xa. The digestion was terminated by addition of 100 μM Glu-Gly-Arg chloromethyl ketone. Completeness of the digest was monitored by SDS-PAGE. Following dialysis, the proteoliposomes were labeled in the outer leaflet by addition of 0.25 mol % fluorescent NBD-PC (in dimethyl sulfoxide, final solvent concentration 0.25%).
# PL Scramblase activity. Scramblase activity was measured as previously described (F. Bassé, et al., supra, 1996; J. G. Stout, et al., supra, 1997 and in U.S. Ser. No. 08/790,186). Routinely, proteoliposomes labeled with NBD-PC were incubated for 2 hours at 37° C. in Tris buffer in the presence or absence of 2 mM CaCl2. Proteoliposomes were diluted 25-fold in Tris buffer containing 4 mM EGTA and transferred to a stirred fluorescence cuvet at 23° C. Initial fluorescence was recorded (SLM Aminco 8000 spectrof luorimeter; excitation at 470 nm, emission at 532 nm), 20 mM dithionite was added, and the fluorescence continuously monitored for a total of 120 seconds. The difference in non-quenchable fluorescence observed in presence vs. absence of CaCl2 Was attributed to Ca^2+-induced change in NBD-PC located in the outer leaflet (F. Bassé, et al., supra, 1996; J. G. Stout, et al., supra, 1997; J. C. McIntyre and R.G. Sleight, Biochemistry 30:11819-11827, 1991). Ionized [Ca^2+] was calculated using FreeCal version 4.0 software (generously provided by Dr. Lawrence F. Brass, University of Pennsylvania, Philadelphia, Pa.).
# Reconstitution and Functional Activity of PL Scramblase: Reconstitution, removal of MBP, and functional assay of PL scramblase were performed as previously described (F. Bassé, et al., J. Biol. Chem. 271:17205-17210, 1996; Q. Zhou, et al., supra, 1997; J. G. Stout, et al., J. Clin. Invest. 99:2232-2238, 1997). Routinely, 420 pmoles of protein were reconstituted with 1 μmol of PL. To remove MBP, proteoliposomes were incubated 3 hours at room temperature with 1/40 (w/w) factor Xa. The digest was terminated by addition of 100 μM Glu-Gly-Arg chloromethyl ketone. Proteoliposomes labeled with NBD-PC were incubated for 2 hours at 37° C. in Tris buffer in the presence or absence of CaCl2 as indicated in figure legends and diluted 25-fold in Tris buffer containing 4 mM EGTA. Initial fluorescence was recorded (SLM Aminco 8000 spectrofluorimeter; excitation at 470 nm, emission at 532 nm), 20 mM dithionite was added, and the fluorescence was continuously monitored for a total of 120 seconds. Scramblase activity was calculated according to the difference in non-quenchable fluorescence observed in presence vs absence of CaCl2. Ionized [Ca^2+] was calculated using FreeCal version 4.0 software (generously provided by Dr. Lawrence F. Brass, University of Pennsylvania, Philadelphia, Pa.).
# Mutagenesis of PL Scramblase: Human PL scramblase amino acid residues in EF-hand Ca^2+-binding motif at positions of Asp^273, Asp^275, Phe^277, Ile^279, Phe^281 and Asp^284 were mutated to Ala with oligonucleotide-directed mutagenesis by two rounds of PCR. […]
row,apparent avidity for Ca2+ of mutant human PL scramblase,Molecule
1,significant reduction,B1
2,significant reduction,B2
3,significant reduction,B3

# Same assay, conditions: mutant human PL scramblase, 2 mM CaCl2
row,PL scramblase function of Ala-substituted mutants of the EF-hand loop vs wild type,Molecule
1,complete inactivation,B1
2,partial loss of function,B2
3,partial loss of function,B3
